Experimental data reported in the Immune Epitope Database (IEDB).
pIC50, pKd: −log10 of the molar value.

How the values were obtained:
HLA-A*24:02 = assay: IEDB peptide-MHC binding, purified MHC/competitive/fluorescence; ≥ and ≤ were set here for values at or beyond the usual limits of such assays; conditions: source organism: Sudan ebolavirus
HLA-A*02:01 [1] = assay: as above; conditions: source organism: Sudan ebolavirus
HLA-A*11:01 = assay: as above
HLA-B*35:01 = assay: IEDB peptide-MHC binding, purified MHC/competitive/radioactivity; filed as Kd, often an IC50 or EC50 that approximates it; ≥ and ≤ were set here for values at or beyond the usual limits of such assays
HLA-B*53:01 = assay: as above
HLA-B*07:02 = assay: as above
HLA-B*51:01 [2] = assay: as above
HLA-B*54:01 = assay: as above
HLA-A*02:03 = assay: as above
HLA-A*02:01 [3] = assay: as above
HLA-A*68:02 [4] = assay: as above
HLA-A*68:02 [5] = assay: IEDB peptide-MHC binding, purified MHC/competitive/fluorescence; filed as Kd, often an IC50 or EC50 that approximates it; ≥ and ≤ were set here for values at or beyond the usual limits of such assays
HLA-B*15:03 = assay: IEDB peptide-MHC binding, purified MHC/competitive/radioactivity; filed as Kd, often an IC50 or EC50 that approximates it; ≥ and ≤ were set here for values at or beyond the usual limits of such assays
HLA-A*02:06 = assay: as above
HLA-A*02:02 = assay: as above
HLA-A*30:01 = assay: as above
HLA-B*15:01 [6] = assay: as above
HLA-A*32:01 = assay: as above
HLA-B*08:01 = assay: as above
HLA-B*15:17 = assay: IEDB peptide-MHC binding, purified MHC/competitive/fluorescence; filed as Kd, often an IC50 or EC50 that approximates it; ≥ and ≤ were set here for values at or beyond the usual limits of such assays; conditions: source organism: Homo sapiens
HLA-A*69:01 = assay: as above; conditions: source organism: Homo sapiens
HLA-B*51:01 [7] = assay: as above; conditions: source organism: Homo sapiens
HLA-B*18:01 = assay: as above; conditions: source organism: Homo sapiens
HLA-B*57:01 = assay: as above; conditions: source organism: Homo sapiens
HLA-A*02:01 [8] = assay: as above; conditions: source organism: Homo sapiens
HLA-B*15:01 [9] = assay: as above; conditions: source organism: Homo sapiens
HLA-B*39:01 = assay: as above; conditions: source organism: Homo sapiens
HLA-B*27:03 = assay: as above; conditions: source organism: Homo sapiens
HLA-A*26:01 = assay: as above; conditions: source organism: Homo sapiens
HLA-B*46:01 = assay: as above; conditions: source organism: Homo sapiens
[10] = source organism: SARS coronavirus Tor2
[11] = source organism: Vaccinia virus Copenhagen
[12] = source organism: Vaccinia virus WR
[13] = source organism: Lassa virus Josiah

## ATSYLEYEI
HLA-A*24:02
  pIC50: 5.29
HLA-A*02:01 [1]
  pIC50: 5.30
HLA-A*11:01; source organism: Sudan ebolavirus
  pIC50: ≤ 4.09

## AVVVNPSVK
HLA-A*11:01; source organism: West Nile virus
  pIC50: 5.65

## CPAEIVDTV
HLA-B*35:01; [10]
  pKd: 6.71
HLA-B*53:01; [10]
  pKd: 6.92
HLA-B*07:02; [10]
  pKd: 6.05
HLA-B*51:01 [2]; [10]
  pKd: 8.73
HLA-B*54:01; [10]
  pKd: 8.00

## DMEISAYRKL
HLA-A*02:03; source organism: Homo sapiens
  pKd: ≤ 4.56
HLA-A*02:01 [3]; source organism: Homo sapiens
  pKd: ≤ 4.23
HLA-A*68:02 [4]; source organism: Homo sapiens
  pKd: ≤ 4.22

## DVALEDNLI
HLA-A*68:02 [5]; source organism: Vibrio cholerae V52
  pKd: 7.04

## EDNPGFFRV
HLA-A*68:02 [5]; source organism: Yersinia pestis CO92
  pKd: 6.53

## EELRSLYNTI
HLA-A*68:02 [5]; source organism: Human immunodeficiency virus 1
  pKd: ≤ 4.70

## ELAYYNSCM
HLA-B*15:03; [11]
  pKd: 5.38
HLA-A*02:06; [12]
  pKd: 5.45
HLA-A*02:02; [12]
  pKd: 6.89
HLA-A*02:03; [12]
  pKd: 6.87
HLA-A*30:01; [11]
  pKd: 5.84
HLA-B*15:01 [6]; [11]
  pKd: 6.23
HLA-A*32:01; [11]
  pKd: ≤ 4.69
HLA-B*08:01; [11]
  pKd: 6.46

## EPEKDIRELL
HLA-B*35:01; [12]
  pKd: ≤ 4.45
HLA-B*53:01; [12]
  pKd: 6.65
HLA-B*07:02; [12]
  pKd: 4.81
HLA-B*51:01 [2]; [12]
  pKd: ≤ 4.29
HLA-B*54:01; [12]
  pKd: ≤ 4.62

## EPISDYSAEV
HLA-B*35:01; [12]
  pKd: 5.97
HLA-B*53:01; [12]
  pKd: 5.62
HLA-B*07:02; [12]
  pKd: 5.86
HLA-B*51:01 [2]; [12]
  pKd: 5.95
HLA-B*54:01; [12]
  pKd: 7.33

## EQYKTESFF
HLA-B*15:03; [12]
  pKd: 8.74
HLA-B*15:01 [6]; [12]
  pKd: 8.18

## FFLQRLYFL
HLA-B*15:03; [12]
  pKd: 6.09
HLA-A*30:01; [12]
  pKd: 6.11
HLA-B*15:01 [6]; [12]
  pKd: 5.92
HLA-A*32:01; [12]
  pKd: ≤ 4.42
HLA-B*08:01; [12]
  pKd: 8.17

## FGIKCIKKG
HLA-A*11:01; source organism: Vaccinia virus
  pIC50: ≤ 3.54

## FMTNFSMVY
HLA-B*15:03; [12]
  pKd: 8.65

## FNVNGSQVY
HLA-B*15:03; [12]
  pKd: 6.58

## FPCSICLSGL
HLA-B*35:01; [10]
  pKd: 6.91
HLA-B*53:01; [10]
  pKd: 6.52
HLA-B*07:02; [10]
  pKd: 7.23
HLA-B*51:01 [2]; [10]
  pKd: 7.46
HLA-B*54:01; [10]
  pKd: 7.19

## FQQPQFQYL
HLA-B*15:03; [11]
  pKd: 7.65

## GLSRYVAR
HLA-A*02:01 [3]; source organism: Hepatitis B virus
  pKd: ≤ 4.30

## HPNPKGFCDL
HLA-B*35:01; [10]
  pKd: 6.51
HLA-B*53:01; [10]
  pKd: 6.16
HLA-B*07:02; [10]
  pKd: 6.01
HLA-B*51:01 [2]; [10]
  pKd: 6.03
HLA-B*54:01; [10]
  pKd: 5.01

## ILHVDILSF
HLA-B*15:03; [12]
  pKd: 7.62

## IMTSYQYLI
HLA-A*02:06; [13]
  pKd: 6.22
HLA-A*02:02; [13]
  pKd: 6.68
HLA-A*02:03; [13]
  pKd: 7.11
HLA-A*02:01 [3]; [13]
  pKd: 7.48
HLA-A*68:02 [4]; [13]
  pKd: 6.16

## ISSLGILVF
HLA-B*15:03; [12]
  pKd: 7.09

## IYDFYYLDY
HLA-B*15:17
  pKd: ≤ 4.70
HLA-A*69:01
  pKd: ≤ 4.70
HLA-B*51:01 [7]
  pKd: ≤ 4.70
HLA-B*18:01
  pKd: ≤ 4.70
HLA-B*57:01
  pKd: ≤ 4.70
HLA-A*02:01 [8]
  pKd: ≤ 4.70
HLA-B*15:01 [9]
  pKd: ≤ 4.70
HLA-B*39:01
  pKd: ≤ 4.70
HLA-B*27:03
  pKd: ≤ 4.70
HLA-A*26:01
  pKd: ≤ 4.70
HLA-B*46:01
  pKd: ≤ 4.70
